Results from patent publication US20210363269A1 (ALX ONCOLOGY, published 2021).

T1: C57BL/6 mouse SIRP-α D1 domain (mouse (C57BL/6 strain), UniProt P97797 32-148)
T1 sequence: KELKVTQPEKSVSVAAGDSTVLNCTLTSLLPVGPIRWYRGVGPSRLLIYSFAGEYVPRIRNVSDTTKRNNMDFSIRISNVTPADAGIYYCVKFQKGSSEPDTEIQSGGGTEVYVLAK

T2: cynomolgus SIRP-α D1 domain (cyno1) (cynomolgus monkey, UniProt Q5TFQ8 30-148 (human entry), limits assumed)
T2 chain: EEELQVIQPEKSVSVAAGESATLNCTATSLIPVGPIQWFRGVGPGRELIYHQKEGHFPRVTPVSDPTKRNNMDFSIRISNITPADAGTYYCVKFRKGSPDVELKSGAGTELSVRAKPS

T3: BL6 mouse SIRP-α (mouse (C57BL/6 strain), UniProt P97797 32-148)
T3 construct: also called C57BL/6
T3 sequence: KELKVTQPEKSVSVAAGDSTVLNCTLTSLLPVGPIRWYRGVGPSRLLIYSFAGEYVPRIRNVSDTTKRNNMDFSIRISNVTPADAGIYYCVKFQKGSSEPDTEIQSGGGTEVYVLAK

T4: BALBc mouse SIRP-α (mouse (BALB/c strain))
T4 chain: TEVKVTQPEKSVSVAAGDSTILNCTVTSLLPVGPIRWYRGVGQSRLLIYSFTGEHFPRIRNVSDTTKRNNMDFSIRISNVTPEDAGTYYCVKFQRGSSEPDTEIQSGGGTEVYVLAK

T5: NOD mouse SIRP-α (mouse (NOD strain))
T5 chain: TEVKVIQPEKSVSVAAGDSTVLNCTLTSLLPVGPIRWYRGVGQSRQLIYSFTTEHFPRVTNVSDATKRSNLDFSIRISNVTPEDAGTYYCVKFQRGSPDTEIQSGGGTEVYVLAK

T6: cynomolgus SIRP-α (cynomolgus monkey, UniProt Q5TFQ8 30-148 (human entry), limits assumed)
T6 construct: also called cyno1
T6 chain: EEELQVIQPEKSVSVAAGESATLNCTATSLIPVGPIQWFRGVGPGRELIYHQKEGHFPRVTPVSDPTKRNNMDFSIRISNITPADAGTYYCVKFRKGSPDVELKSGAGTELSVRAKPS


Legend:
[1] = biological target: T1, C57BL/6 mouse SIRP-α D1 domain; assay: SPR
Outline: (§1)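 Antibody clones in scFv-Fc format were captured from pre-filtered culture media onto anti-human IgG Fc, amine-coupled (about 4000 RU) on a GLC chip of a ProteOn XPR36 instrument. SIRP analytes were flowed in PBS pH 7.4 with 0.01% Tween-20 at 25° C. Data were double-referenced against interspot and buffer-blank responses. Dissociation rate constants (koff) were derived by fitting a 1:1 Langmuir model.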

[2] = biological target: T7, human SIRP-α v1 D1 domain (human, UniProt P78324 31-149); assay: SPR, Langmuir fit
T7 construct: also called human v1
Outline: as §1

[3] = biological target: T8, human SIRP-α v2 D1 domain (human); assay: SPR, Langmuir fit
T8 construct: also called human v2
Outline: as §1

human SIRPγ isoform 1 [4] = biological target: T9, human SIRPγ isoform 1 (human, UniProt Q9P1W8 29-147); assay: SPR, Langmuir fit
T9 construct: also called SIRPg; sirpg
Outline: as §1
T9 sequence (Q9P1W8 29-147 limits assumed): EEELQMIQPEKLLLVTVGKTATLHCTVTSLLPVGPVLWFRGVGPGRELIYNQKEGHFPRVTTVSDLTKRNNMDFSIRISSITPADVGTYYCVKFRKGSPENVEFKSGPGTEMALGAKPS

[5] = biological target: T2, cynomolgus SIRP-α D1 domain (cyno1); assay: SPR, Langmuir fit
Outline: as §1

BL6 mouse SIRP-α = biological target: T3, BL6 mouse SIRP-α; assay: SPR, antibody on GLC chip
Outline: (§2)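 Antibodies purified with Protein A were amine-coupled (~1000 RU) to a ProteOn XPR36 GLC chip, and SIRP analytes were injected one-shot at 100, 33, 11, 3.7, 1.2 and 0 nM in PBS pH 7.4 with 0.01% Tween-20 at 25° C. Each run used 90 s association at 100 μL/min followed by 1200 s dissociation. KD was derived as kd/ka from a global Langmuir fit to double-referenced sensorgrams.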

BALBc mouse SIRP-α [6] = biological target: T4, BALBc mouse SIRP-α; assay: SPR, antibody on GLC chip
Outline: as §2

human SIRP-α v1 [7] = biological target: T10, human SIRP-α v1 (human, UniProt P78324 31-149); assay: SPR, antibody on GLC chip
T10 construct: also called Human v1; Human V1
Outline: as §2

human SIRPγ isoform 1 [8] = biological target: T11, human SIRPγ isoform 1 (human, UniProt Q9P1W8 29-147); assay: SPR, antibody on GLC chip
T11 construct: also called Gamma; Human SIRPg
Outline: as §2
T11 sequence (Q9P1W8 29-147 limits assumed): as above

human SIRP-α v2 [9] = biological target: T12, human SIRP-α v2 (human); assay: SPR, antibody on GLC chip
T12 construct: also called Human v2; Human V2
Outline: as §2

NOD mouse SIRP-α = biological target: T5, NOD mouse SIRP-α; assay: SPR, antibody on GLC chip
Outline: as §2

cynomolgus SIRP-α = biological target: T6, cynomolgus SIRP-α; assay: SPR
Outline: (§3)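 KD values were derived as kd/ka from apparent rate constants obtained by globally fitting double-referenced data to a simple Langmuir model. The data came from a ProteOn XPR36 biosensor run at 25° C in PBS pH 7.4 with 0.01% Tween-20. There, purified antibodies sat on a GLC chip by amine coupling or on an NLC chip by biotinylated Protein A capture, and SIRP analytes were injected in one-shot kinetic mode at nominal concentrations set from A280 absorbance.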

BALBc mouse SIRP-α [10] = biological target: T4, BALBc mouse SIRP-α; assay: SPR
Outline: as §3

human SIRP-α v1 [11] = biological target: T10, human SIRP-α v1; assay: SPR
Outline: as §3

human SIRPγ isoform 1 [12] = biological target: T11, human SIRPγ isoform 1; assay: SPR
Outline: as §3

human SIRP-α v2 [13] = biological target: T12, human SIRP-α v2; assay: SPR
Outline: as §3

T12 sequence (chain, as listed by the source limits assumed): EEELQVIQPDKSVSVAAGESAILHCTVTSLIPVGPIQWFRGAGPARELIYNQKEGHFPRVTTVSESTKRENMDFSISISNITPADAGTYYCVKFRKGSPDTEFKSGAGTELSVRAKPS
T10 sequence (P78324 31-149 limits assumed): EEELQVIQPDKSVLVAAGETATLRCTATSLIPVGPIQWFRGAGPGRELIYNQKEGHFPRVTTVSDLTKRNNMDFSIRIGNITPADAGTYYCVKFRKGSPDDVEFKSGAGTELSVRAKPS
T8 sequence (chain, as listed by the source limits assumed): as the sequence (chain, as listed by the source limits assumed) above
T7 sequence (P78324 31-149 limits assumed): as the sequence (P78324 31-149 limits assumed) above

| Binder | Kd (BL6 mouse SIRP-α) | Kd (BALBc mouse SIRP-α [6]) | Kd (human SIRP-α v1 [7]) | Kd (human SIRPγ isoform 1 [8]) | Kd (human SIRP-α v2 [9]) | Kd (NOD mouse SIRP-α) | koff (cynomolgus SIRP-α) | koff (BALBc mouse SIRP-α [10]) | koff (human SIRP-α v1 [11]) | koff (human SIRPγ isoform 1 [12]) | koff (human SIRP-α v2 [13]) | also measured |
| --- | --- | --- | --- | --- | --- | --- | --- | --- | --- | --- | --- | --- |
| S218 (scFv, V domains shown, scFv-Fc format (VL-linker-VH on human IgG1 Fc)) VH: DVQLVESGGGVVRPGESLTLSCTASGFTFTSSTMNWVRQAPGEGLDWVSSISTSGVITYYADSVKGRATISRDNSKNTLYLRLFSLRADDTAIYYCATDTFDHWGPGTLVTVSS VL: ALTQPASVSANPGETVKITCFGSSGNYGWFQQKSPGSAPVTVIHYNNKRPSDIPSRFSGSKSGSTGTLTITGVRAEDEAVYFCGAWETGSATFGAGTTLTVL |  |  |  |  |  |  |  |  |  |  |  | binding result [1]: no binding (tested: Koff > 5 × 10^3 (legend)); koff [2]: 7.06e-05 s⁻¹; koff [3]: 5.47e-05 s⁻¹; koff (human SIRPγ isoform 1 [4]): 2.12e-05 s⁻¹; koff [5]: 2.49e-05 s⁻¹ |
| antibody 136 variant, light chain Mut / heavy chain Mut (antibody, V domains shown) VH: EVQLVESGGGVVQPGRSLRLSCAASGFTFSSYDVNWVRQAPGKGLEWVSLISGSGEIIYYADSVKGRFTISRDNSKNTLYLQMNSLRAEDTAVYYCAKENNRYRFFDDWGQGTLVTVSS VL: EIVLTQSPGTLSLSPGERATLSCRASQSVYTYLAWYQQKPGQAPRLLIYGASSRATGIPDRFSGSGSGTEFTLTISSLQSEDFAVYYCQQYYDRPPLTFGGGTKVEIK | 31.7 nM | 3.14 nM | 7.29 nM | 1.68 nM | 19.5 nM | 5.21 nM |  |  |  |  |  |  |
| antibody 136 variant, light chain Mut_Q38E / heavy chain Mut (antibody, V domains shown) VH: EVQLVESGGGVVQPGRSLRLSCAASGFTFSSYDVNWVRQAPGKGLEWVSLISGSGEIIYYADSVKGRFTISRDNSKNTLYLQMNSLRAEDTAVYYCAKENNRYRFFDDWGQGTLVTVSS VL: EIVLTQSPGTLSLSPGERATLSCRASQSVYTYLAWYQEKPGQAPRLLIYGASSRATGIPDRFSGSGSGTEFTLTISSLQSEDFAVYYCQQYYDRPPLTFGGGTKVEIK | 33.1 nM | 2.98 nM | 6.18 nM | 19.3 nM | 12.5 nM | 5.98 nM |  |  |  |  |  |  |
| antibody 136 variant, light chain Mut_S22T / heavy chain Mut (antibody, V domains shown) VH: EVQLVESGGGVVQPGRSLRLSCAASGFTFSSYDVNWVRQAPGKGLEWVSLISGSGEIIYYADSVKGRFTISRDNSKNTLYLQMNSLRAEDTAVYYCAKENNRYRFFDDWGQGTLVTVSS VL: EIVLTQSPGTLSLSPGERATLTCRASQSVYTYLAWYQQKPGQAPRLLIYGASSRATGIPDRFSGSGSGTEFTLTISSLQSEDFAVYYCQQYYDRPPLTFGGGTKVEIK | 13.3 nM | 1.64 nM | 4.99 nM | 61.7 nM | 8.28 nM | 2.44 nM |  |  |  |  |  |  |
| antibody 136 variant, light chain Mut_S12T / heavy chain Mut (antibody, V domains shown) VH: EVQLVESGGGVVQPGRSLRLSCAASGFTFSSYDVNWVRQAPGKGLEWVSLISGSGEIIYYADSVKGRFTISRDNSKNTLYLQMNSLRAEDTAVYYCAKENNRYRFFDDWGQGTLVTVSS VL: EIVLTQSPGTLTLSPGERATLSCRASQSVYTYLAWYQQKPGQAPRLLIYGASSRATGIPDRFSGSGSGTEFTLTISSLQSEDFAVYYCQQYYDRPPLTFGGGTKVEIK | 16.3 nM | 2.09 nM | 4.88 nM | 66.7 nM | 10.5 nM | 2.85 nM |  |  |  |  |  |  |
| Hum1/AB21_HC_wt (antibody, V domains shown) VH: DVQLVESGGGVVRPGESLRLSCAASGFTFSSNAMSWVRQAPGKGLEWLAGISAGGSDTYYPASVKGRFTISRDNSKNTLYLQMNTLTAEDTAVYYCARETWNHLFDYWGLGTLVTVSS VL: SYELTQPPSVSVSPGQTARITCSGGSYSSYYYAWYQQKPGQAPVTLIYSDDKRPSNIPERFSGSSSGTTVTLTISGVQAEDEADYYCGGYDQSSYTNPFGGGTKLTVL |  |  |  |  |  |  | 0.000395 s⁻¹ | 0.00291 s⁻¹ | 0.000193 s⁻¹ | 0.000188 s⁻¹ | 0.000303 s⁻¹ |  |
| Hum1/AB25_HC_wt (antibody, V domains shown) VH: DVQLVESGGGVVRPGESLRLSCEASGFTFSSNAMSWVRQAPGKGLEWVAGISSGSDTYYGDSVKGRLTISRDNSKNILYLQMNSLTAEDTAVYYCARETWNHLFDYWGLGTLVTVSS VL: SYELTQPPSVSVSPGQTARITCSGGSYSSYYYAWYQQKPGQAPVTLIYSDDKRPSNIPERFSGSSSGTTVTLTISGVQAEDEADYYCGGYDQSSYTNPFGGGTKLTVL |  |  |  |  |  |  | 0.00033 s⁻¹ | 0.00374 s⁻¹ | 0.000133 s⁻¹ | 0.000203 s⁻¹ | 0.000267 s⁻¹ |  |
| Hum3/AB21_HC_wt (antibody, V domains shown) VH: DVQLVESGGGVVRPGESLRLSCAASGFTFSSNAMSWVRQAPGKGLEWLAGISAGGSDTYYPASVKGRFTISRDNSKNTLYLQMNTLTAEDTAVYYCARETWNHLFDYWGLGTLVTVSS VL: SYELTQPPSVSVSPGQTARITCSGGDYYSTYYAWYQQKPGQAPVTVIHSDDKRPSDIPERFSGSSSGTTVTLTISGVQAEDEADYYCGGYDGRTYINTFGGGTKLTVL |  |  |  |  |  |  | 0.000432 s⁻¹ | 0.00231 s⁻¹ | 0.000137 s⁻¹ | 0.00021 s⁻¹ | 0.000438 s⁻¹ |  |
| Hum3/AB25_HC_wt (antibody, V domains shown) VH: DVQLVESGGGVVRPGESLRLSCEASGFTFSSNAMSWVRQAPGKGLEWVAGISSGSDTYYGDSVKGRLTISRDNSKNILYLQMNSLTAEDTAVYYCARETWNHLFDYWGLGTLVTVSS VL: SYELTQPPSVSVSPGQTARITCSGGDYYSTYYAWYQQKPGQAPVTVIHSDDKRPSDIPERFSGSSSGTTVTLTISGVQAEDEADYYCGGYDGRTYINTFGGGTKLTVL |  |  |  |  |  |  | 0.000375 s⁻¹ | 0.000227 s⁻¹ | 5.94e-05 s⁻¹ | 0.000169 s⁻¹ | 0.000353 s⁻¹ |  |
| Hum1/AB66_HC_wt (antibody, V domains shown) VH: DVQLVESGGGVVRPGESLRLSCAASGFTFSSYAMSWVRQAPGKGLEWLAGISAGGSDTYYIDSVKGRFTISRDNPKNSLYLQMSSLTAEDTAVYYCARETWNHLFDYWGLGTLVTVSS VL: SYELTQPPSVSVSPGQTARITCSGGSYSSYYYAWYQQKPGQAPVTLIYSDDKRPSNIPERFSGSSSGTTVTLTISGVQAEDEADYYCGGYDQSSYTNPFGGGTKLTVL |  |  |  |  |  |  | 0.000303 s⁻¹ | 0.00246 s⁻¹ | 0.000124 s⁻¹ | 0.000136 s⁻¹ | 0.000239 s⁻¹ |  |
| Hum1/AB27_HC_wt (antibody, V domains shown) VH: DVQLVESGGGVVRPGESLRLSCAVSGFRFSSYAMSWVRQAPGKGLEWVSGISSGGDTYYVDSVKGRFTISRDNSKNTLYLQVNSLTAEDTAIYYCARETWNHLFDYWGLGTLVTVSS VL: SYELTQPPSVSVSPGQTARITCSGGSYSSYYYAWYQQKPGQAPVTLIYSDDKRPSNIPERFSGSSSGTTVTLTISGVQAEDEADYYCGGYDQSSYTNPFGGGTKLTVL |  |  |  |  |  |  | 0.000379 s⁻¹ | 0.0037 s⁻¹ | 0.000192 s⁻¹ | 0.000178 s⁻¹ | 0.000292 s⁻¹ |  |
